Source: publication PMC12338045 (Science (New York, N.Y.), 2025)

Columns and labels:
Mcm3 (yeast) = Mcm3 (yeast) (budding yeast, UniProt P24279 1-971); assay: cryo-EM structure
Mcm4 (yeast) = biological target: T1, Mcm4 (yeast) (budding yeast, UniProt P30665 1-933); assay: cryo-EM structure
T1 sequence: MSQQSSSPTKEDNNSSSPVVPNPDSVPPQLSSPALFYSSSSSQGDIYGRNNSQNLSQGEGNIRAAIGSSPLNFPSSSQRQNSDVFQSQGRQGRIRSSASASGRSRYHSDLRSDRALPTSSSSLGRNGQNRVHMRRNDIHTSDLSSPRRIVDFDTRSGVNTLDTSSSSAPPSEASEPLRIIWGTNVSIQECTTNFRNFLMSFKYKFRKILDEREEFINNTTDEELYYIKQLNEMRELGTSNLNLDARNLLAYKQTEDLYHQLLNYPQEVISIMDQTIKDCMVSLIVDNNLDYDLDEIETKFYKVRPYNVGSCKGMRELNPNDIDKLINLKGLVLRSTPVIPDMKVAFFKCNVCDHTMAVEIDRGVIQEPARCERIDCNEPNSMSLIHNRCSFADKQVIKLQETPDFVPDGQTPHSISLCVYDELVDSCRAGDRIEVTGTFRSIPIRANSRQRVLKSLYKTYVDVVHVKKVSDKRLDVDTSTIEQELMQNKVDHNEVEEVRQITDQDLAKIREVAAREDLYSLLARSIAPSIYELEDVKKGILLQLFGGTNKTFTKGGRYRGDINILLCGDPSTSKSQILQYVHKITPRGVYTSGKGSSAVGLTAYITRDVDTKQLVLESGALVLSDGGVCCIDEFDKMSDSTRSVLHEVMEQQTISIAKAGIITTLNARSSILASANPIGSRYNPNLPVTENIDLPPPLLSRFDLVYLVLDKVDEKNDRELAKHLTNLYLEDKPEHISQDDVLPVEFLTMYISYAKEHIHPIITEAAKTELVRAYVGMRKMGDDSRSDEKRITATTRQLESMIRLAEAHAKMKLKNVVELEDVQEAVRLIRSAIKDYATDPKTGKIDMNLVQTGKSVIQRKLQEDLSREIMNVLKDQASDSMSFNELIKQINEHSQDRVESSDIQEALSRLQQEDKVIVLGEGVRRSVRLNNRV

Chain of Mcm3 (yeast) (P24279 whole entry): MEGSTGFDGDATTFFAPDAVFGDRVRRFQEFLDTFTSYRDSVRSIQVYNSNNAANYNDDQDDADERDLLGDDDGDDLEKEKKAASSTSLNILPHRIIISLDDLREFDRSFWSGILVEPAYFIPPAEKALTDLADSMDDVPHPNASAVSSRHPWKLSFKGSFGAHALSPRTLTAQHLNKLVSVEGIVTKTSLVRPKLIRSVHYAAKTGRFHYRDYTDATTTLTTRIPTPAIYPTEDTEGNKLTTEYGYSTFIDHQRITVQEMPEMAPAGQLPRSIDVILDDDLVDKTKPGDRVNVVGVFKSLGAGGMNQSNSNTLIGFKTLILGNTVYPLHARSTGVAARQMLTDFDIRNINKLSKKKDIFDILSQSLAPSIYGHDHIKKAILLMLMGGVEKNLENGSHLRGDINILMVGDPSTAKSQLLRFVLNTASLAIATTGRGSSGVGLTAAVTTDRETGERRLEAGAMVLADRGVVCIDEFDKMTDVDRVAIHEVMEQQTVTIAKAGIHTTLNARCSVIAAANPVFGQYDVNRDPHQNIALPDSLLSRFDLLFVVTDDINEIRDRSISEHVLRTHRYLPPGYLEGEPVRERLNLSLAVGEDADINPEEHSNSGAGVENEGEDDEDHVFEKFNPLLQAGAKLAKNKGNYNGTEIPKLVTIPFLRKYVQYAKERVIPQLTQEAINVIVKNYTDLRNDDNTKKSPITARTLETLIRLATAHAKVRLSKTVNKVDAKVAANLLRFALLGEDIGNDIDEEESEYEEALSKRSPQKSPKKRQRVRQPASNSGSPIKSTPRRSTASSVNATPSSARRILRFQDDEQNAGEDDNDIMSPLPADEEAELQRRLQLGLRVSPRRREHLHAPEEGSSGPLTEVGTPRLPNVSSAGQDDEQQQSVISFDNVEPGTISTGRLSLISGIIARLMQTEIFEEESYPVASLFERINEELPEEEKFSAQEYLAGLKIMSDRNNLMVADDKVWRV

binding result (Mcm3 (yeast)): binds
binding result (Mcm4 (yeast)): binds
B1: Mcm7 (yeast) (natural protein, budding yeast)
chain: MSAALPSIQLPVDYNNLFNEITDFLVTFKQDTLSSDATRNENEDENLDAENIEQHLLEKGPKYMAMLQKVANRELNSVIIDLDDILQYQNEKFLQGTQADDLVSAIQQNANHFTELFCRAIDNNMPLPTKEIDYKDDVLDVILNQRRLRNERMLSDRTNEIRSENLMDTTMDPPSSMNDALREVVEDETELFPPNLTRRYFLYFKPLSQNCARRYRKKAISSKPLSVRQIKGDFLGQLITVRGIITRVSDVKPAVEVIAYTCDQCGYEVFQEVNSRTFTPLSECTSEECSQNQTKGQLFMSTRASKFSAFQECKIQELSQQVPVGHIPRSLNIHVNGTLVRSLSPGDIVDVTGIFLPAPYTGFKALKAGLLTETYLEAQFVRQHKKKFASFSLTSDVEERVMELITSGDVYNRLAKSIAPEIYGNLDVKKALLLLLVGGVDKRVGDGMKIRGDINVCLMGDPGVAKSQLLKAICKISPRGVYTTGKGSSGVGLTAAVMKDPVTDEMILEGGALVLADNGICCIDEFDKMDESDRTAIHEVMEQQTISISKAGINTTLNARTSILAAANPLYGRYNPRLSPLDNINLPAALLSRFDILFLMLDIPSRDDDEKLAEHVTYVHMHNKQPDLDFTPVEPSKMREYIAYAKTKRPVMSEAVNDYVVQAYIRLRQDSKREMDSKFSFGQATPRTLLGIIRLSQALAKLRLADMVDIDDVEEALRLVRVSKESLYQETNKSKEDESPTTKIFTIIKKMLQETGKNTLSYENIVKTVRLRGFTMLQLSNCIQEYSYLNVWHLINEGNTLKFVDDGTMDTDQEDSLVSTPKLAPQTTASANVSAQDSDIDLQDA
